Assay results: US12679878B2, “CRF2 receptor agonists and their use in therapy” (SANOFI, priority 2020, dated 2026)
Starred links: 1 amine or outer side, 2 acyl side, 3 side chain; linkers in the order of their positions; H or OH if unused. Non-standard residues stand in square brackets, D forms with d. Groups on a side chain read outwards from the residue. No end group written: not given here. *: point of attachment. C18 diacid = O=C(O)CCCCCCCCCCCCCCCCC(=O)*; γGlu = O=C(O)[C@H](CCC(=O)[*:2])N[*:1]; AEEA = NCCOCCOCC(=O)O; Aib = CC(C)(N)C(=O)O

T1: CRF1R receptor (anti-target) (UniProt P34998 24-415, limits assumed)
T1 sequence (looked up): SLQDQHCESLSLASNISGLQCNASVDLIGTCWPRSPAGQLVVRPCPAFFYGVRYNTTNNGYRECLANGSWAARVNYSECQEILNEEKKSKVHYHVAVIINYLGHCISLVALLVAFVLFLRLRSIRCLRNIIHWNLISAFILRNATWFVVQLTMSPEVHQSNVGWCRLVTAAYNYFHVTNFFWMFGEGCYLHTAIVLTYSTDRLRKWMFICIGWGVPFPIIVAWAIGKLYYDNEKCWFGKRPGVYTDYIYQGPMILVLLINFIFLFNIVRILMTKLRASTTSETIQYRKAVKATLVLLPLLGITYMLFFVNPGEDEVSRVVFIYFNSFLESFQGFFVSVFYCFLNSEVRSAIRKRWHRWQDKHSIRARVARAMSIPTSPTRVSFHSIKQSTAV


Target: T1, CRF1R receptor (anti-target)
Assay: cell-based or functional assay

EC50 [nM] 0% HSA (cAMP, HTRF) | Emax (%) (100% = Sauvagine at 100 nM) | Binder
> 100 nM | 9% | IVLSLDVPIKLK([AEEA-AEEA-γGlu-C18 diacid])QILLEQARQK[Aib]QRAQAEKNKRILERV-NH2 (N-terminus assumed; SMILES CC[C@H](C)[C@H](N)C(=O)N[C@H](C(=O)N[C@@H](CC(C)C)C(=O)N[C@@H](CO)C(=O)N[C@@H](CC(C)C)C(=O)N[C@@H](CC(=O)O)C(=O)N[C@H](C(=O)N1CCC[C@H]1C(=O)N[C@H](C(=O)N[C@@H](CCCCN)C(=O)N[C@@H](CC(C)C)C(=O)N[C@@H](CCCCNC(=O)COCCOCCNC(=O)COCCOCCNC(=O)CC[C@H](NC(=O)CCCCCCCCCCCCCCCCC(=O)O)C(=O)O)C(=O)N[C@@H](CCC(N)=O)C(=O)N[C@H](C(=O)N[C@@H](CC(C)C)C(=O)N[C@@H](CC(C)C)C(=O)N[C@@H](CCC(=O)O)C(=O)N[C@@H](CCC(N)=O)C(=O)N[C@@H](C)C(=O)N[C@@H](CCCNC(=N)N)C(=O)N[C@@H](CCC(N)=O)C(=O)N[C@@H](CCCCN)C(=O)NC(C)(C)C(=O)N[C@@H](CCC(N)=O)C(=O)N[C@@H](CCCNC(=N)N)C(=O)N[C@@H](C)C(=O)N[C@@H](CCC(N)=O)C(=O)N[C@@H](C)C(=O)N[C@@H](CCC(=O)O)C(=O)N[C@@H](CCCCN)C(=O)N[C@@H](CC(N)=O)C(=O)N[C@@H](CCCCN)C(=O)N[C@@H](CCCNC(=N)N)C(=O)N[C@H](C(=O)N[C@@H](CC(C)C)C(=O)N[C@@H](CCC(=O)O)C(=O)N[C@@H](CCCNC(=N)N)C(=O)N[C@H](C(N)=O)C(C)C)[C@@H](C)CC)[C@@H](C)CC)[C@@H](C)CC)C(C)C)C(C)C) [peptide of SEQ ID NO: 123]
> 100 nM | -2.5% | IVLSLDVPIKLK([AEEA-AEEA-γGlu-C18 diacid])QILLKQARQK[Aib]QRAQAEKNKRILERV-NH2 (N-terminus assumed; SMILES CC[C@H](C)[C@H](N)C(=O)N[C@H](C(=O)N[C@@H](CC(C)C)C(=O)N[C@@H](CO)C(=O)N[C@@H](CC(C)C)C(=O)N[C@@H](CC(=O)O)C(=O)N[C@H](C(=O)N1CCC[C@H]1C(=O)N[C@H](C(=O)N[C@@H](CCCCN)C(=O)N[C@@H](CC(C)C)C(=O)N[C@@H](CCCCNC(=O)COCCOCCNC(=O)COCCOCCNC(=O)CC[C@H](NC(=O)CCCCCCCCCCCCCCCCC(=O)O)C(=O)O)C(=O)N[C@@H](CCC(N)=O)C(=O)N[C@H](C(=O)N[C@@H](CC(C)C)C(=O)N[C@@H](CC(C)C)C(=O)N[C@@H](CCCCN)C(=O)N[C@@H](CCC(N)=O)C(=O)N[C@@H](C)C(=O)N[C@@H](CCCNC(=N)N)C(=O)N[C@@H](CCC(N)=O)C(=O)N[C@@H](CCCCN)C(=O)NC(C)(C)C(=O)N[C@@H](CCC(N)=O)C(=O)N[C@@H](CCCNC(=N)N)C(=O)N[C@@H](C)C(=O)N[C@@H](CCC(N)=O)C(=O)N[C@@H](C)C(=O)N[C@@H](CCC(=O)O)C(=O)N[C@@H](CCCCN)C(=O)N[C@@H](CC(N)=O)C(=O)N[C@@H](CCCCN)C(=O)N[C@@H](CCCNC(=N)N)C(=O)N[C@H](C(=O)N[C@@H](CC(C)C)C(=O)N[C@@H](CCC(=O)O)C(=O)N[C@@H](CCCNC(=N)N)C(=O)N[C@H](C(N)=O)C(C)C)[C@@H](C)CC)[C@@H](C)CC)[C@@H](C)CC)C(C)C)C(C)C) [peptide of SEQ ID NO: 124]
